Measurements from patent US20240117073A1, “METHODS OF TREATING NEOPLASTIC ASTROCYTOMA” (Ludwig Institute for Cancer Research Ltd., priority 2009, published 2024).
Where “and” joins values, the source holds several entries; their conditions need not be identical. Identical values can stand only once. Entries after “also recorded” stand apart in the source; their conditions may differ.

Tests used:
[1] = target: T1, junction peptide (Homo sapiens, UniProt P00533, DELINS30-297G); experiment: dot-blot immune stain; assay type: binding
T1 construct: purchased Biosource, Camarillo, CA; host or cells: synthetic
Description: Dot-blot immune stain experiments were also performed. Serial dilutions of peptide were spotted in 0.5 μl onto a PVDF or nitrocellulose membranes. […] Control antibodies were also negative for peptide binding.

[2] = test system: U87MG.wtEGFR cells; experiment: FACS binding to cell lines; assay type: cell-based, human
Description: Briefly, cells were labelled with the relevant antibody (10 μg/ml) followed by fluorescein-conjugated goat anti-mouse IgG (1:100 dilution; Calbiochem San Diego, CA, USA; Becton-Dickinson PharMingen, San Diego, CA, US) as described previously (Nishikawa et al., 1994). FACS data was obtained on a Coulter Epics Elite ESP by observing a minimum of 5,000 events and analyzed using EXPO (version 2) for Windows.
Stained cells were analyzed with a FACS Calibur™ using Cell Quest™ software (Becton-Dickinson PharMingen). […] 1. Mouse IgG2a or IgG2b was used as an isotype control.
Cell lines and antibodies were prepared as described in Example 1. […] Cells (1 3 10 6) were incubated with 5 μg/ml of the appropriate antibody or an isotype-matched negative control in PBS containing 1% HSA for 30 min at 4° C. After three washes with PBS/1% HSA, cells were incubated an additional 30 min at 4° C. with FTTC-coupled goat anti-mouse antibody (1:100 dilution; Calbiochem, San Diego, CA). After three subsequent washes, cells were analyzed on an Epics Elite ESP (Beckman Coulter, Hialeah, FL) by observing a minimum of 20,000 events and analyzed using EXPO (version 2) for Windows.

[3] = test system: DU145 xenografts; experiment: established xenograft model; assay type: in vivo, nude mice; conditions: day 67; 1 mg i.p.
Text: Xenografts were allowed to establish for 18 days before therapy commenced (3 times a week for 3 weeks on days indicated). At this time the average tumor volume was 90 mm^3 (FIG. 68D).

[4] = test system: normal tissues; experiment: immunohistochemistry of normal tissue; set-up: species or system human
Description: Immunohistochemical analysis was performed using […] sections of fresh frozen tissue applied to histology slides and fixed for 10 minutes in cold acetone. Bound primary antibody was detected with biotinylated horse anti-mouse antibody followed by an avidin-biotin-complex reaction. Diaminobenzidine tetra hydrochloride (DAB) was used as chromogen. The extent of the immunohistochemical reactivity in tissues was estimated by light microscopy and graded according to the number of immunoreactive cells in 25% increments as follows: • Focal=less than 5% • +=5-25% • ++=25-50% • +++=50-75% • ++++=>75%
There was some variable staining present in tonsils with mAb806 that was restricted to the basal cell layer of the epidermis and mucosal squamous cells of the epithelium. In placenta, occasional immunostaining of the trophoblast epithelium was observed. […] All tissues were positive for the wtEGFR as evidenced by the universal staining seen with the 528 antibody (Table 3).

[5] = target: T2, de2-7 EGFR and wtEGFR (Homo sapiens, UniProt P00533, DELINS30-297G); experiment: immunoprecipitation from 35S-labeled cells; assay type: binding
T2 construct: expressed in transfected cells; host or cells: NR6ΔEGFR and U87MG.ΔEGFR/U87MG.Δ2-7 (transfected ΔEGFR); U87MG.wtEGFR (transfected wtEGFR); U87MG and A431 (endogenous wtEGFR)
Description: Briefly, cells were labeled for 16 h with […] of Tran ^35S-Label (ICN Biomedicals, Irvine, CA) in DMEM without methionine/cysteine supplemented with 5% dialyzed FCS. After washing with PBS, cells were placed in lysis buffer (1% Triton X-100, 30 mM HEPES, 150 mM NaCl, 500 μM 4-(2-aminoethyl) benzenesulfonylfluoride (AEBSF), 150 nM aprotinin, 1 μM E-64 protease inhibitor, 0.5 mM EDTA, and 1 μM leupeptin, pH 7.4) for 1 h at 4° C. Lysates were clarified by centrifugation for 10 min at 12,000 g and then incubated with 5 μg of appropriate antibody for 30 min at 4° C. before the addition of Protein A-Sepharose. Immunoprecipitates were washed three times with lysis buffer, mixed with SDS sample buffer, separated by gel electrophoresis using a 4-20% Tris/glycine gel that was then dried, and exposed to X-ray film.

[6] = test system: U87MG cells; experiment: FACS binding to cell lines; assay type: cell-based, human
Description: Stained cells were analyzed with a FACS Calibur™ using Cell Quest™ software (Becton-Dickinson PharMingen). […] Mouse IgG2a or IgG2b was used as an isotype control.

[7] = test system: Ba/F3 cells expressing the wtEGFR; experiment: EGF-induced proliferation (MTT assay); assay type: cell-based; conditions: antibody 10 μg/ml
Description: Cells growing in log phase were harvested and washed twice with PBS to remove residual IL-3. […] Proliferation was determined using the MTT assay (van de Loosdrecht et al. (1994) J. Immunol. Methods. 174, 311-320).

[8] = test system: DU145 cells; experiment: FACS binding to cell lines; assay type: cell-based, human
Text: Clearly, mAb806 and mAb175 can recognize only a small proportion of the EGFR on cells in the presence of an autocrine stimulation loop.

[9] = test system: A431 xenografts; experiment: preventative xenograft model; assay type: in vivo, nude mice
Description: (§1) Tumor cells (3×10^6) in […] of PBS were inoculated subcutaneously into both flanks of 4-6 week old female nude mice (Animal Research Centre, Western Australia, Australia). […] Treatment was continued for a total of 6 doses, 3 times per week for 2 weeks. In the established model, treatment was started when tumors had reached a mean volume of 65±6.42 mm^3 (U87MG.Δ2-7), 84±9.07 mm^3 (U87MG), 73±7.5 mm^3 (U87MG.wtEGFR) or 201±19.09 mm^3 (A431 tumors). Tumor volume in mm^3 was determined using the formula (length×width^2)/2, where length was the longest axis and width the measurement at right angles to the length (Clark et al. (2000) Therapeutic efficacy of anti-Lewis (y) humanized 3S 193 radioimmunotherapy in a breast cancer model: enhanced activity when combined with Taxol chemotherapy. Clin. Cancer Res. 6, 3621-3628). Data was expressed as mean tumor volume±S.E. for each treatment group. Statistical analysis was performed at given time points using Student's t-test. Animals were euthanized when the xenografts reached an approximate volume of 1.5 cm^3 and the tumors excised for histological examination. This research project was approved by the Animal Ethics Committee of the Austin and Repatriation Medical Centre.
These cells contain an amplified EGFR gene and express approximately 2×10^6 receptors per cell. […]

[10] = test system: A431 xenografts; experiment: established xenograft model; assay type: in vivo, nude mice; conditions: day 13; 1 mg injection
Description: as §1
At day 13, when control animals were sacrificed, the mean tumor volume was 1142±120.06 mm^3 for the control group and 451±65.58 mm^3 for the 1 mg injection group (p<0.0001).

B1: mAb806: murine monoclonal antibody recognizing de2-7 EGFR and amplified EGFR; VH SEQ ID NO:2, VL SEQ ID NO:4 (antibody, listed as Mus musculus, V domains shown)
VH: MRVLILLWLFTAFPGVLSDVQLQESGPSLVKPSQSLSLTCTVTGYSITSDFAWNWIRQFPGNKLEWMGYISYSGNTRYNPSLKSRISITRDTSKNQFFLQLNSVTIEDTATYYCVTAGRGFPYWGQGTLVTVSA
VL: MVSTAQFLAFLLLWFPGARCDILMTQSPSSMSVSLGDTVSITCHSSQDINSNIGWLQQRPGKSFKGLIYHGTNLDDEVPSRFSGSGSGADYSLTISSLESEDFADYYCVQYAQFPWTFGGGTKLEIKR
- binding to peptide on membranes [1]: did not bind peptide
- FACS staining [2]: stained; also recorded: reacted weakly
- mean tumor volume [3]: 605 mm^3
- reactivity ([4]; Skin): − occ. weak reactivity
- reactivity ([4]; Tonsil): − occ. weak reactivity
- immunoprecipitated EGFR bands [5]: immunoprecipitated the two de2-7 EGFR bands, the wtEGFR was completely absent; also recorded: immunoprecipitated a single band corresponding to the wtEGFR from both U87MG.wtEGFR and A431 cells
- FACS staining [6]: binding levels similar to the control antibody; also recorded: not with U87MG cells
- effect on EGF-induced proliferation [7]: no effect
- FACS binding [8]: bind to DU145 cells
- effect on xenograft growth ([9]; 0.1 mg): inhibited significantly
- mean tumor volume ([9]; day 13, 1 mg injection): 260±60.33 mm^3 and 260±60 mm^3
- mean tumor volume [10]: 451±65.58 mm^3 and 450±70 mm^3
